Among the data in article PMC3807654 (Cell Reports, 2012) are Kd values, retold here.

In the assay the target is human α-synuclein, monomeric, full length (human, UniProt P37840 1-140). Briefly: fluorescence polarisation. For orientation: Fluorescence polarisation rises when a labelled molecule tumbles more slowly, as on binding a larger partner.

B1: Atto550-labeled SERF1a (Cys-SERF1a-Cys, N- and C-terminal double cysteine mutant) (natural protein)
chain: MC(Atto550 maleimide)ARGNQRELARQKNMKKTQEISKGKRKEDSLTASQRKQRDSEIMQEKQKAANEKKSMQTREKC(Atto550 maleimide)
One may read the Kd as a measure of binding affinity in units of concentration. Molecule B1 returned a Kd of 8.04 ± 2.09 µM.
